{
  "source": "patent US10626404B2",
  "about": "“Mutant xylose-metabolizing enzyme and use thereof” (National Institute of Advanced Industrial Science and …, priority 2016, dated 2020)",
  "key": {"[1]": {"target": "T1, Clostridium phytofermentans ISDg xylose isomerase (CpXI, SEQ ID NO: 11) mutant CpXI-T63I (Lachnoclostridium phytofermentans, UniProt A9KN98, T63I)", "T1 construct": "cell lysate", "test": "Xylose isomerase activity (kinetic parameters) in cell disruption solution, strain SS82", "type": "biochemical", "conditions": "T63I vs wild type CpXI"}, "[2]": {"target": "T2, Clostridium phytofermentans ISDg xylose isomerase (CpXI, SEQ ID NO: 11) mutant CpXI-V162A, N303T (Lachnoclostridium phytofermentans, UniProt A9KN98, N303T/V162A)", "T2 construct": "cell lysate", "test": "Xylose isomerase activity (kinetic parameters) in cell disruption solution, strain SS92", "type": "biochemical", "conditions": "N303T vs wild type CpXI"}, "[3]": {"target": "T3, Clostridium phytofermentans ISDg xylose isomerase (CpXI, SEQ ID NO: 11) mutant CpXI-N303T (Lachnoclostridium phytofermentans, UniProt A9KN98, N303T)", "T3 construct": "cell lysate", "test": "Xylose isomerase activity (kinetic parameters) in cell disruption solution, strain SS105", "type": "biochemical", "conditions": "cell disruptate after 24 h microaerobic fermentation, xylose 10-500 mM, pH 8.0, 30° C.", "source_text": "(§1) The created mutant CpXI-V162A gene expression plasmid (Table 3: plasmid No. 31) and CpXI-N303T gene expression plasmid (Table 3: plasmid No. 32) were cleaved with BsiWI and used for transformation of strain SS29. The obtained strains were designated as strain SS104 (Table 4: strain No. 29) and strain SS105 (Table 4: strain No. 30), respectively."}, "[4]": {"target": "T4, Clostridium phytofermentans ISDg xylose isomerase (CpXI, SEQ ID NO: 11) double mutant CpXI-T63I, V162A (Lachnoclostridium phytofermentans, UniProt A9KN98, T63I/V162A)", "T4 construct": "cell lysate", "test": "Xylose isomerase activity (kinetic parameters) in cell disruption solution, strain SS120", "type": "biochemical", "conditions": "cell disruptate after 24 h microaerobic fermentation, xylose 10-500 mM, pH 8.0, 30° C."}, "[5]": {"target": "Clostridium phytofermentans ISDg xylose isomerase (CpXI), wild type, SEQ ID NO: 11 (Lachnoclostridium phytofermentans, UniProt A9KN98)"}, "[6]": {"test_system": "Piromyces sp. E2 xylose isomerase mutant E15D, E114G, E129D, T142S, A177T and V433I", "conditions": "mutant vs wild type Piromyces sp. E2 xylose isomerase; NPL 10; cited from earlier work"}, "[7]": {"substrate": "OC1OC[C@@H](O)[C@H](O)[C@H]1O", "test": "cells, lysate or membranes", "type": "biochemical, Clostridium phytofermentans ISDg", "conditions": "cell disruptate after 24 h microaerobic fermentation, xylose 10-500 mM, pH 8.0, 30° C."}, "[8]": {"substrate": "OC1OC[C@@H](O)[C@H](O)[C@H]1O", "test": "cells, lysate or membranes", "type": "biochemical, Clostridium phytofermentans ISDg", "conditions": "cell disruptate after 24 h microaerobic fermentation, xylose 10-500 mM, pH 8.0, 30° C.", "source_text": "as §1", "remark": "listed apart in the source"}, "[9]": {"substrate": "OC1OC[C@@H](O)[C@H](O)[C@H]1O", "test": "cells, lysate or membranes", "conditions": "other: wild type (SS81), cell disruptate after 24 h microaerobic fermentation, xylose 10-500 mM, pH 8.0, 30° C."}},
  "data": [
    {"molecule": "OC1OC[C@@H](O)[C@H](O)[C@H]1O", "note": "(stereo partly drawn) [xylose, D-xylose]", "values": [
      {"measurement": "metabolic activity (Vmax) higher than the wild type", "setting": "[1]", "value": 38, "unit": "%"},
      {"measurement": "Vmax value compared with the wild type", "setting": "[2]", "value": "equivalent to the wild type"},
      {"measurement": "Vmax value", "setting": "[3]", "value": "0.030 ± 0.001", "unit": "μmol mg protein^−1 min^−1"},
      {"measurement": "Vmax value", "setting": "[4]", "value": "0.104 ± 0.003", "unit": "μmol mg protein^−1 min^−1"},
      {"measurement": "Vmax value", "setting": "[5]", "value": 0.66, "unit": "μmol/mg protein/min"},
      {"measurement": "Km value compared with the wild type", "setting": "[6]", "value": "approximately twice as high"},
      {"measurement": "Vmax value larger than the wild type", "setting": "[6]", "value": 77, "unit": "%"}
    ]},
    {"molecule": "Clostridium phytofermentans ISDg xylose isomerase (CpXI, SEQ ID NO: 11) mutant CpXI-T63I (Lachnoclostridium phytofermentans ISDg; T63I) (protein, cell lysate) MKNYFPNVPEVKYEGPNSTNPFAFKYYDANKVVAGKTMKEHCRFALSWWHTLCAGGADPFGVITMDRTYGNITDPMELAKAKVDAGFELMTKLGIEFFCFHDADIAPEGDTFEESKKNLFEIVDYIKEKMDQTGIKLLWGTANNFSHPRFMHGASTSCNADVFAYAAAKIKNALDATIKLGGKGYVFWGGREGYETLLNTDLGLELDNMARLMKMAVEYGRANGFDGDFYIEPKPKEPTKHQYDFDTATVLAFLRKYGLEKDFKMNIEANHATLAGHTFEHELAMARVNGAFGSVDANQGDPNLGWDTDQFPTDVHSATLAMLEVLKAGGFTNGGLNFDAKVRRGSFEFDDIAYGYIAGMDTFALGLIKAAEIIDDGRIAKFVDDRYASYKTGIGKAIVDGTTSLEELEQYVLTHSEPVMQSGRQEVLETIVNNILFR", "values": [
      {"measurement": "Km", "setting": "[7]; other: T63I (SS82)", "value": 29.2, "unit": "mM"},
      {"measurement": "Vmax", "setting": "[7]; other: T63I (SS82)", "value": 0.091, "unit": "µmol/min/mg"}
    ]},
    {"molecule": "Clostridium phytofermentans ISDg xylose isomerase (CpXI, SEQ ID NO: 11) mutant CpXI-V162A (Lachnoclostridium phytofermentans ISDg; V162A) (protein, cell lysate) MKNYFPNVPEVKYEGPNSTNPFAFKYYDANKVVAGKTMKEHCRFALSWWHTLCAGGADPFGVTTMDRTYGNITDPMELAKAKVDAGFELMTKLGIEFFCFHDADIAPEGDTFEESKKNLFEIVDYIKEKMDQTGIKLLWGTANNFSHPRFMHGASTSCNADAFAYAAAKIKNALDATIKLGGKGYVFWGGREGYETLLNTDLGLELDNMARLMKMAVEYGRANGFDGDFYIEPKPKEPTKHQYDFDTATVLAFLRKYGLEKDFKMNIEANHATLAGHTFEHELAMARVNGAFGSVDANQGDPNLGWDTDQFPTDVHSATLAMLEVLKAGGFTNGGLNFDAKVRRGSFEFDDIAYGYIAGMDTFALGLIKAAEIIDDGRIAKFVDDRYASYKTGIGKAIVDGTTSLEELEQYVLTHSEPVMQSGRQEVLETIVNNILFR", "values": [
      {"measurement": "Km", "setting": "[8]; other: V162A (SS104)", "value": 29.5, "unit": "mM"},
      {"measurement": "Vmax", "setting": "[8]; other: V162A (SS104)", "value": 0.063, "unit": "µmol/min/mg"}
    ]},
    {"molecule": "Clostridium phytofermentans ISDg xylose isomerase (CpXI), wild type, SEQ ID NO: 11 (Lachnoclostridium phytofermentans ISDg) (protein) MKNYFPNVPEVKYEGPNSTNPFAFKYYDANKVVAGKTMKEHCRFALSWWHTLCAGGADPFGVTTMDRTYGNITDPMELAKAKVDAGFELMTKLGIEFFCFHDADIAPEGDTFEESKKNLFEIVDYIKEKMDQTGIKLLWGTANNFSHPRFMHGASTSCNADVFAYAAAKIKNALDATIKLGGKGYVFWGGREGYETLLNTDLGLELDNMARLMKMAVEYGRANGFDGDFYIEPKPKEPTKHQYDFDTATVLAFLRKYGLEKDFKMNIEANHATLAGHTFEHELAMARVNGAFGSVDANQGDPNLGWDTDQFPTDVHSATLAMLEVLKAGGFTNGGLNFDAKVRRGSFEFDDIAYGYIAGMDTFALGLIKAAEIIDDGRIAKFVDDRYASYKTGIGKAIVDGTTSLEELEQYVLTHSEPVMQSGRQEVLETIVNNILFR", "values": [
      {"measurement": "Km", "setting": "[9]", "value": 46.9, "unit": "mM"},
      {"measurement": "Vmax", "setting": "[9]", "value": 0.066, "unit": "µmol/min/mg"}
    ]},
    {"molecule": "Clostridium phytofermentans ISDg xylose isomerase (CpXI, SEQ ID NO: 11) mutant CpXI-N303T (Lachnoclostridium phytofermentans ISDg; N303T) (protein, cell lysate) MKNYFPNVPEVKYEGPNSTNPFAFKYYDANKVVAGKTMKEHCRFALSWWHTLCAGGADPFGVTTMDRTYGNITDPMELAKAKVDAGFELMTKLGIEFFCFHDADIAPEGDTFEESKKNLFEIVDYIKEKMDQTGIKLLWGTANNFSHPRFMHGASTSCNADVFAYAAAKIKNALDATIKLGGKGYVFWGGREGYETLLNTDLGLELDNMARLMKMAVEYGRANGFDGDFYIEPKPKEPTKHQYDFDTATVLAFLRKYGLEKDFKMNIEANHATLAGHTFEHELAMARVNGAFGSVDANQGDPTLGWDTDQFPTDVHSATLAMLEVLKAGGFTNGGLNFDAKVRRGSFEFDDIAYGYIAGMDTFALGLIKAAEIIDDGRIAKFVDDRYASYKTGIGKAIVDGTTSLEELEQYVLTHSEPVMQSGRQEVLETIVNNILFR", "values": [
      {"measurement": "Km", "setting": "[8]; other: N303T (SS105)", "value": 19.1, "unit": "mM"},
      {"measurement": "Vmax", "setting": "[8]; other: N303T (SS105)", "value": 0.03, "unit": "µmol/min/mg"}
    ]},
    {"molecule": "Clostridium phytofermentans ISDg xylose isomerase (CpXI, SEQ ID NO: 11) double mutant CpXI-T63I, V162A (Lachnoclostridium phytofermentans ISDg; T63I/V162A) (protein, cell lysate) MKNYFPNVPEVKYEGPNSTNPFAFKYYDANKVVAGKTMKEHCRFALSWWHTLCAGGADPFGVITMDRTYGNITDPMELAKAKVDAGFELMTKLGIEFFCFHDADIAPEGDTFEESKKNLFEIVDYIKEKMDQTGIKLLWGTANNFSHPRFMHGASTSCNADAFAYAAAKIKNALDATIKLGGKGYVFWGGREGYETLLNTDLGLELDNMARLMKMAVEYGRANGFDGDFYIEPKPKEPTKHQYDFDTATVLAFLRKYGLEKDFKMNIEANHATLAGHTFEHELAMARVNGAFGSVDANQGDPNLGWDTDQFPTDVHSATLAMLEVLKAGGFTNGGLNFDAKVRRGSFEFDDIAYGYIAGMDTFALGLIKAAEIIDDGRIAKFVDDRYASYKTGIGKAIVDGTTSLEELEQYVLTHSEPVMQSGRQEVLETIVNNILFR", "values": [
      {"measurement": "Km", "setting": "[7]; other: T63I, V162A (SS120)", "value": 34.4, "unit": "mM"},
      {"measurement": "Vmax", "setting": "[7]; other: T63I, V162A (SS120)", "value": 0.104, "unit": "µmol/min/mg"}
    ]},
    {"molecule": "Clostridium phytofermentans ISDg xylose isomerase (CpXI, SEQ ID NO: 11) mutant CpXI-V162A, N303T (Lachnoclostridium phytofermentans ISDg; N303T/V162A) (protein, cell lysate) MKNYFPNVPEVKYEGPNSTNPFAFKYYDANKVVAGKTMKEHCRFALSWWHTLCAGGADPFGVTTMDRTYGNITDPMELAKAKVDAGFELMTKLGIEFFCFHDADIAPEGDTFEESKKNLFEIVDYIKEKMDQTGIKLLWGTANNFSHPRFMHGASTSCNADAFAYAAAKIKNALDATIKLGGKGYVFWGGREGYETLLNTDLGLELDNMARLMKMAVEYGRANGFDGDFYIEPKPKEPTKHQYDFDTATVLAFLRKYGLEKDFKMNIEANHATLAGHTFEHELAMARVNGAFGSVDANQGDPTLGWDTDQFPTDVHSATLAMLEVLKAGGFTNGGLNFDAKVRRGSFEFDDIAYGYIAGMDTFALGLIKAAEIIDDGRIAKFVDDRYASYKTGIGKAIVDGTTSLEELEQYVLTHSEPVMQSGRQEVLETIVNNILFR", "values": [
      {"measurement": "Km", "setting": "[7]; other: V162A, N303T (SS92)", "value": 28.4, "unit": "mM"},
      {"measurement": "Vmax", "setting": "[7]; other: V162A, N303T (SS92)", "value": 0.066, "unit": "µmol/min/mg"}
    ]}
  ]
}
